This data set deals with the molecule itself. The experiment in a line: SEC. Background: SEC sorts molecules by how far they enter the pores of the column.

Results on one protein are retold here after article PMC3374333 (Nature neuroscience, 2012).

B1: GBR1bVFT (Venus Flytrap module of the extracellular domain of human GABAB receptor subunit GBR1b) (domain or fragment, UniProt Q9UBS5-2 30-459, looked up)
chain: SHSPHLPRPHSRVPPHPSSERRAVYIGALFPMSGGWPGGQACQPAVEMALEDVNSRRDILPDYELKLIHHDSKCDPGQATKYLYELLYNDPIKIILMPGCSSVSTLVAEAARMWNLIVLSYGSSSPALSNRQRFPTFFRTHPSATLHNPTRVKLFEKWGWKKIATIQQTTEVFTSTLDDLEERVKEAGIEITFRQSFFSDPAVPVKNLKRQDARIIVGLFYETEARKVFCEVYKERLFGKKYVWFLIGWYADNWFKIYDPSINCTVDEMTEAVEGHITTEIVMLNPANTRSISNMTSQEFVEKLTKRLKRHPEETGGFQEAPLAYDAIWALALALNKTSGGGGRSGVRLEDFNYNNQTITDQIYRAMNSSSFEGVSGHVVFDASGSRMAWTLIEQLQGGSYKKIGYYDSTKDDLSWSKTDKWIGGSPPAD
For the protein B1, the “stoichiometry N” value is 2.

As a reminder, the stoichiometry N is a count of units in the complex or per binding partner.
